{"source": "IntAct's records for PubMed 25117763", "parents": {"B1": {"name": "Axin interactor, dorsalization-associated protein (Mus musculus), Q8C4Q6-1 (parent)", "chain": "MSEVTRSLLQRWGASLRRGADFDSWGQLVEAIDEYQILARHLQKEAQAQHNNSEFTEEQKKTIGKIATCLELRSAALQSTQSQEEFKLEDLKKLEPILKNILTYNKEFPFDVQPIPLRRILAPGEEENLEFEEDEEGGAGAGPPDSFSARVPGTLLPRLPSEPGMTLLTIRIEKIGLKDAGQCIDPYITVSVKDLNGIDLTPVQDTPVASRKEDTYVHFNVDIELQKHVERLTKGAAIFFEFKHYKPKKRFTSTKCFAFMEMDEIKPGPIVIELYKKPTDFKRKKLQLLTKKPLYLHLHQSLHKE"}}}
{"variants_of": "B1", "details": "with Axin1, O35625-2"}
{"variant": "MSEVTRSLLQRWGASLRRGADFDSWGQLVEAIDEYQILARHLQKEAQAQHNNSEFTEEQKKTIGKIATCLELRSAALQSTQSQEEFKLEDLKKLEPILKNILTYNKEFPFDVQPIPLRRILAPGEEENLEFEEDEEGGAGAGPPDSFSARVPGTLLPRLPSEPGMTLLTIRIEKIGLKDAGQCIDPYITVSVKDLNGIDLTPVQDTPVASRKEDTYVHFNVDIELQKHVERLTKGAAIFFEFKHYKPKKRFTSTKCFAFMEMDEIKPGPIVIELYKKPTDFAAAALQLLTKKPLYLHLHQSLHKE", "note": "[K282A;R283A;K284A;K285A]", "effect of a mutation on the interaction": "disrupting interaction"}
